B1: Cold shock protein CspB, P41016 (parent)
chain: MQRGKVKWFNNEKGYGFIEVEGGSDVFVHFTAIQGEGFKTLEEGQEVSFEIVQGNRGPQAANVVKL

Variants of: B1
Conditions: Bacillus caldolyticus, pH 7, Thermal, Na cacodylate/HCl 0.1 M, reversible: Yes, structure 1C9O, whole UniProt chain shown

Variant	ddG of mutation (higher = less stable) (75 °C, CD, NaCl 0-2 M) [kcal/mol]	heat capacity change of unfolding (75 °C, CD, NaCl 0-2 M) [kcal/mol/K]	ddG of mutation (higher = less stable) (75 °C, CD, NaCl 2 M) [kcal/mol]	heat capacity change of unfolding (75 °C, CD, NaCl 2 M) [kcal/mol/K]	ddG of mutation (higher = less stable) (75 °C, CD) [kcal/mol]	heat capacity change of unfolding (75 °C, CD) [kcal/mol/K]	Tm (CD) [°C]	change of melting temperature, mutant - wild type (higher = more stable) (CD) [°C]	heat capacity change of unfolding (CD) [kcal/mol/K]	unfolding enthalpy (van 't Hoff) (CD) [kcal/mol]	ddG of mutation (higher = less stable) (75 °C, DSC, NaCl 0-2 M) [kcal/mol]	heat capacity change of unfolding (75 °C, DSC, NaCl 0-2 M) [kcal/mol/K]	ddG of mutation (higher = less stable) (75 °C, DSC, NaCl 2 M) [kcal/mol]	heat capacity change of unfolding (75 °C, DSC, NaCl 2 M) [kcal/mol/K]	ddG of mutation (higher = less stable) (75 °C, DSC) [kcal/mol]	heat capacity change of unfolding (75 °C, DSC) [kcal/mol/K]	Tm (DSC) [°C]	change of melting temperature, mutant - wild type (higher = more stable) (DSC) [°C]	heat capacity change of unfolding (DSC) [kcal/mol/K]	unfolding enthalpy (calorimetric) (DSC) [kcal/mol]
N55K	0.29	0.96	-0.19	0.96	-0.1	0.96	77.7	0.8	0.96	55.2	–	–	–	–	–	–	–	–	–	–
E50K	0.76	0.96	-0.26	0.96	0.5	0.96	73.5	-3.4	0.96	43.3	–	–	–	–	–	–	–	–	–	–
H29E	–	–	–	–	–	–	–	–	–	–	0.29	0.96	0.48	0.96	0.76	0.96	–	–	–	–
E36K	0.98	0.96	-0.79	0.96	0.19	0.96	76	-0.9	0.96	45.6	–	–	–	–	–	–	–	–	–	–
E46K	–	–	–	–	–	–	–	–	–	–	0.43	0.96	0.22	0.96	0.65	0.96	74	-2.9	0.96	114
R56E	-0.53	0.96	-0.24	0.96	-0.76	0.96	–	–	–	–	–	–	–	–	–	–	–	–	–	–
E12K	0.1	0.96	0.29	0.96	0.43	0.96	–	–	–	–	–	–	–	–	–	–	–	–	–	–
E21K	0.43	0.96	-0.17	0.96	0.26	0.96	75.4	-1.5	0.96	49	–	–	–	–	–	–	–	–	–	–
